Experimental data reported in patent US20070142283A1.

Biological target: recombinant FGF-2 (rFGF-2) of SEQ ID NO: 2 (bovine) (UniProt P03969)
Test: commercial ELISA for human FGF-2 (R&D Systems), cross-reactivity against human FGF-2

Sequence of UniProt P03969 (P03969 10-155 limits assumed): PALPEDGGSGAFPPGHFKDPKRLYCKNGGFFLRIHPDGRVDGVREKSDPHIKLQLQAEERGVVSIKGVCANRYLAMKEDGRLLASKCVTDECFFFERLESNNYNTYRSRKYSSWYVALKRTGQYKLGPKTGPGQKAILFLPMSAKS

cross-reactivity: 100%
Substance: commercially available ELISA (R&D Systems, Minneapolis Minn.) that was marketed for analysis of human FGF-2 (antibody)
